Measurements published in publication PMC9894195.

How the values were obtained:
[1] = target: full-length human Lck-mEGFP (HEK293T) (UniProt P06239); test: sFCCS (line-scan fluorescence cross-correlation spectroscopy) in live cells; details: HEK293T cells coexpressing mCherry2-tagged CD4 construct with wild-type Lck-mEGFP; read off a plot
[2] = target: full-length human CD4 with both the basic-rich region and the amphipathic α-helix replaced by (Gly-Ser)n linkers, mCherry2-tagged (human) (UniProt P01730); test: scanning fluorescence cross-correlation spectroscopy (sFCCS); live HEK293T cells on glass coverslips coexpressing mCherry2- and mEGFP-tagged proteins, one coreceptor; line scans at the basal cell surface; cross-correlation quotient q normalised to the tandem control (100%) and Lck^CS/Lck^CS (0%)
[3] = target: full-length human CD4 with the amphipathic α-helix replaced by a (Gly-Ser)n linker, mCherry2-tagged (human) (UniProt P01730); test: as above
[4] = target: full-length human CD4 with the unstructured C-terminal tail replaced by a (Gly-Ser)n linker, mCherry2-tagged (human) (UniProt P01730); test: as above

## full-length human CD4-mCherry2 (HEK293T) (from UniProt P01730) CQC>SQS (both Zn2+ clasp Cys to Ser; no residue numbers printed)
[1]
  other: normalized cross-correlation quotient q (occupancy): 1%

## full-length human Lck-mEGFP (HEK293T) (from UniProt P06239 1-509) (enzyme)
[2]
  decrease in CD4/Lck occupancy: 28%
[3]
  decrease in CD4/Lck occupancy: 27%
[4]
  decrease in CD4/Lck occupancy: 14%
